Results: the supplement of paper PMC9170038
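Also: bound reporter read as fluorescence of individual clusters on recovered sequencing chips by microscopy, with normalized cluster intensities fitted with a binding model.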

The sequences below were run on K4 kissing-loop RNA reporter (assay: apparent KD of K4 kissing-loop reporter; higher = weaker reporter binding). Settings: Eterna round: R107; input ligand: FMN 200 uM.
Method: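 RNA-MaP round R107: designed RNA switches with theophylline, tryptophan, arginine or FMN aptamers are transcribed on-chip within common flanks. They are titrated with a labelled K4 kissing-loop RNA reporter in RNA-MaP buffer (100 mM Tris pH 7.5, 80 mM KCl, 4 mM MgCl2), without ligand or with the indicated ligand. Median apparent KD per design.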
In the case of “GGUGUUGUUUGUGCUGUUUUCCUCGUUCCUCGAGGACCGGUACGGCCGCCACUCGAGUGAUGUUUGGGUAGCGAUCCUUGUUAGU [Bdazzled - #7 Exc. Tryptophan A]”, the “apparent KD of K4 kissing-loop reporter” value is reported as 336 nM.
With “GUGGAAUUAUGAAAGUGGUUUUAUUAGGAAGGAGCGGCCGAAAGGCCAGGUAGGUCGCCUAUUGACAGUGAUGUUGUUAUAUGGU [#14]” the “apparent KD of K4 kissing-loop reporter” value was 158 nM.
For “AAGUCAUAGGCAGGAUAUGCUUAGUAAUAAGGCCAUAUAUACGUAUAGAGUGAUGUUUUGUACCAGGCAGAAGGGCUACAUCAGU [FMN B Excl V8 (+2A)]”, the “apparent KD of K4 kissing-loop reporter” value was 541 nM.
In the case of “CGUGAGUGCCGUCAGUCAUCGGUCCAUGCACGAGGACCGGUACGGCCGCCACUCGAGCGUGGCAGUGAUGUUGCCAGCGCACUAA [KL-XTryp-A12]”, the “apparent KD of K4 kissing-loop reporter” value is reported as 117 nM.
With “AAAAGCCAGCAAGGAUAUACGCGCGAAGCAUCCAUGGUGCCAGUUCCAGUGAUGUUGGACCACAUCGUAGAAGGUGCGCGGCUCA [theeternabot_sameState_KL_FMN_B_33]” the “apparent KD of K4 kissing-loop reporter” value was 440 nM.
In the case of “CGCAGUGAUGUUGCUAUUAUUCUUGGUUAACGAGGACCGGUACGGCCGCCACUCGAUGUCUGUCUAGUCCAGUGUUUUUUUGAGU [whbob_EX_Tryp_A_t8]”, the “apparent KD of K4 kissing-loop reporter” value is reported as 351 nM.
“UAAUAAAUUCCAGCGAUGUCACUCUUCGAAGGAGCGGACGAAAGUCCAGGUAGGUCGCGAAGAGUGAUGUUCUUCGCGGCGCUGG [Omei KL Arginine A Exc A v3]” was tested, and the “apparent KD of K4 kissing-loop reporter” value was 167 nM.
In the case of “UGACAUUGCUCAGAUACCAGACUUGAGGAUCACCCAAGUGCCAAAUAAACGUACAUAAAAGUCCCUUGGCAGCUGAGCAAUGUCU [TheoBX 11]”, the “apparent KD of K4 kissing-loop reporter” value is reported as 72.9 nM.

Same assay, conditions: Eterna round: R107; input ligand: arginine 13.2 mM
With “CCUAUCUCGUACGAUACCAGACUAUGAUCUUUGAUCAAUGCCAUCACCGAGUGAUGUUCGGUCCCUUGGCAGCGUAUGAGAUGGG [#12 K4 Theophylline B Exclusion]” the “apparent KD of K4 kissing-loop reporter” value was 143 nM.
For “GGCACUUUUGGUAGGAACCAUCUACCUCUAUAGGAUAUGCCGAAAGGCAGAAGGAUAGACCUACAGAGUGAUGUUCUGCGUGCCU”, the “apparent KD of K4 kissing-loop reporter” value was 150 nM.
“AAAAUAAUCCAGUGAUGUUGGUGUCCAGAUACCAGCGACGAAAGUCGCCCUUGGCAGCUGUGGACGUACAAAAUAAGUACGUCCU” was tested, and the “apparent KD of K4 kissing-loop reporter” value was 331 nM.
With “AAAACUAUCAGAAGGAGCGUGGAAUAUUCAUCUAUAUUUAAUACGAGUGAUGUUCGUAAUUCACAGGUAGGUCGCUGAUCAAUAA [JR_ExcArginiB_Sub007]” the “apparent KD of K4 kissing-loop reporter” value was 251 nM.
For “UUGAUAUGAUAGUAUCCUGUUUGAUAAAGGCAGGAUAUCGAAAAUUCGAGAAGGGCCAUUAUAUGCAGUGAUGUUGCAAAUAAGU [Exclusion FMN A Gf 24]”, the “apparent KD of K4 kissing-loop reporter” value was 68.4 nM.
In the case of “GCCGUACGCAUGGAUACCAGUCUACAUCGCAGUGAUGUUGCGUAGUUCAGAUUAACUGCCGACCCUUGGCAGCCAUGCGUACGGC”, the “apparent KD of K4 kissing-loop reporter” value is reported as 111 nM.
In the case of “AAAUUCUUUUUUUUAUUUAACUUUUCAGAAGGAGCGUGGUAGUACACAGGUAGGUCGCUGAAUAUAAGACUAGUGAUGUUAGUUA [JR_SSArginiA_Sub009]”, the “apparent KD of K4 kissing-loop reporter” value is reported as 190 nM.
In the case of “GCAGGACGAGGAGGAGGAUGAAUUACUGAAGGAGCGCAUAUUGUUGCAGGUAGGUCGCGGUAAACAAGUAUAGUGAUGUUAUAUC [SSArgA.O]”, the “apparent KD of K4 kissing-loop reporter” value is reported as 270 nM.
In the case of “UGACUGGAUGGAAGGAGCGCUAAACUCCUAGUGAUGUUAGGGAAACGAGACAAAGUCUCGAAGCAGGUAGGUCGCCAUCUAGUCU [FiskerMod 14 - Jieux - Same State - Arginine B]”, the “apparent KD of K4 kissing-loop reporter” value is reported as 134 nM.
For “AGUACAAUGGCGGCCGCCACUCAACGCAGAUCAAAGAUCUGCAUUCACUCAGUGAUGUUGAGUGAGAGGACCGGGCCUUUGUACA [Omei KL Tryp B SS B v1]”, the “apparent KD of K4 kissing-loop reporter” value was 581 nM.
For “AACUCUCACUGGAGUGAUGUUCUGGAAAACCGAGGACCGGUACGGCCGCCACUCGGAAAUGAGAGAGUCCUACGAAAAGUAGGAC [Omei inspired 1]”, the “apparent KD of K4 kissing-loop reporter” value was 213 nM.
With “GGUGUUGUUUGUGCUGUUUUCCUCGUUCCUCGAGGACCGGUACGGCCGCCACUCGAGUGAUGUUUGGGUAGCGAUCCUUGUUAGU [Bdazzled - #7 Exc. Tryptophan A]” the “apparent KD of K4 kissing-loop reporter” value was 226 nM.
With “GUGGAAUUAUGAAAGUGGUUUUAUUAGGAAGGAGCGGCCGAAAGGCCAGGUAGGUCGCCUAUUGACAGUGAUGUUGUUAUAUGGU [#14]” the “apparent KD of K4 kissing-loop reporter” value was 199 nM.
“AAGUCAUAGGCAGGAUAUGCUUAGUAAUAAGGCCAUAUAUACGUAUAGAGUGAUGUUUUGUACCAGGCAGAAGGGCUACAUCAGU [FMN B Excl V8 (+2A)]” was tested, and the “apparent KD of K4 kissing-loop reporter” value was 276 nM.
In the case of “CGUGAGUGCCGUCAGUCAUCGGUCCAUGCACGAGGACCGGUACGGCCGCCACUCGAGCGUGGCAGUGAUGUUGCCAGCGCACUAA [KL-XTryp-A12]”, the “apparent KD of K4 kissing-loop reporter” value is reported as 98.7 nM.
“AAAAGCCAGCAAGGAUAUACGCGCGAAGCAUCCAUGGUGCCAGUUCCAGUGAUGUUGGACCACAUCGUAGAAGGUGCGCGGCUCA [theeternabot_sameState_KL_FMN_B_33]” was tested, and the “apparent KD of K4 kissing-loop reporter” value was 223 nM.
In the case of “CGCAGUGAUGUUGCUAUUAUUCUUGGUUAACGAGGACCGGUACGGCCGCCACUCGAUGUCUGUCUAGUCCAGUGUUUUUUUGAGU [whbob_EX_Tryp_A_t8]”, the “apparent KD of K4 kissing-loop reporter” value is reported as 467 nM.
“UAAUAAAUUCCAGCGAUGUCACUCUUCGAAGGAGCGGACGAAAGUCCAGGUAGGUCGCGAAGAGUGAUGUUCUUCGCGGCGCUGG [Omei KL Arginine A Exc A v3]” was tested, and the “apparent KD of K4 kissing-loop reporter” value was 115 nM.
With “UGACAUUGCUCAGAUACCAGACUUGAGGAUCACCCAAGUGCCAAAUAAACGUACAUAAAAGUCCCUUGGCAGCUGAGCAAUGUCU [TheoBX 11]” the “apparent KD of K4 kissing-loop reporter” value was 46.3 nM.

Same assay, conditions: Eterna round: R107; input ligand: none
“CCUAUCUCGUACGAUACCAGACUAUGAUCUUUGAUCAAUGCCAUCACCGAGUGAUGUUCGGUCCCUUGGCAGCGUAUGAGAUGGG [#12 K4 Theophylline B Exclusion]” was tested, and the “apparent KD of K4 kissing-loop reporter” value was 170 nM.
For “GGCACUUUUGGUAGGAACCAUCUACCUCUAUAGGAUAUGCCGAAAGGCAGAAGGAUAGACCUACAGAGUGAUGUUCUGCGUGCCU”, the “apparent KD of K4 kissing-loop reporter” value was 330 nM.
With “AAAAUAAUCCAGUGAUGUUGGUGUCCAGAUACCAGCGACGAAAGUCGCCCUUGGCAGCUGUGGACGUACAAAAUAAGUACGUCCU” the “apparent KD of K4 kissing-loop reporter” value was 559 nM.
In the case of “AAAACUAUCAGAAGGAGCGUGGAAUAUUCAUCUAUAUUUAAUACGAGUGAUGUUCGUAAUUCACAGGUAGGUCGCUGAUCAAUAA [JR_ExcArginiB_Sub007]”, the “apparent KD of K4 kissing-loop reporter” value is reported as 233 nM.
In the case of “UUGAUAUGAUAGUAUCCUGUUUGAUAAAGGCAGGAUAUCGAAAAUUCGAGAAGGGCCAUUAUAUGCAGUGAUGUUGCAAAUAAGU [Exclusion FMN A Gf 24]”, the “apparent KD of K4 kissing-loop reporter” value is reported as 52.6 nM.
“GCCGUACGCAUGGAUACCAGUCUACAUCGCAGUGAUGUUGCGUAGUUCAGAUUAACUGCCGACCCUUGGCAGCCAUGCGUACGGC” was tested, and the “apparent KD of K4 kissing-loop reporter” value was 127 nM.
“AAAUUCUUUUUUUUAUUUAACUUUUCAGAAGGAGCGUGGUAGUACACAGGUAGGUCGCUGAAUAUAAGACUAGUGAUGUUAGUUA [JR_SSArginiA_Sub009]” was tested, and the “apparent KD of K4 kissing-loop reporter” value was 235 nM.
“GCAGGACGAGGAGGAGGAUGAAUUACUGAAGGAGCGCAUAUUGUUGCAGGUAGGUCGCGGUAAACAAGUAUAGUGAUGUUAUAUC [SSArgA.O]” was tested, and the “apparent KD of K4 kissing-loop reporter” value was 877 nM.
For “UGACUGGAUGGAAGGAGCGCUAAACUCCUAGUGAUGUUAGGGAAACGAGACAAAGUCUCGAAGCAGGUAGGUCGCCAUCUAGUCU [FiskerMod 14 - Jieux - Same State - Arginine B]”, the “apparent KD of K4 kissing-loop reporter” value was 158 nM.
In the case of “AGUACAAUGGCGGCCGCCACUCAACGCAGAUCAAAGAUCUGCAUUCACUCAGUGAUGUUGAGUGAGAGGACCGGGCCUUUGUACA [Omei KL Tryp B SS B v1]”, the “apparent KD of K4 kissing-loop reporter” value is reported as 637 nM.
For “AACUCUCACUGGAGUGAUGUUCUGGAAAACCGAGGACCGGUACGGCCGCCACUCGGAAAUGAGAGAGUCCUACGAAAAGUAGGAC [Omei inspired 1]”, the “apparent KD of K4 kissing-loop reporter” value was 217 nM.
In the case of “GGUGUUGUUUGUGCUGUUUUCCUCGUUCCUCGAGGACCGGUACGGCCGCCACUCGAGUGAUGUUUGGGUAGCGAUCCUUGUUAGU [Bdazzled - #7 Exc. Tryptophan A]”, the “apparent KD of K4 kissing-loop reporter” value is reported as 341 nM.
“GUGGAAUUAUGAAAGUGGUUUUAUUAGGAAGGAGCGGCCGAAAGGCCAGGUAGGUCGCCUAUUGACAGUGAUGUUGUUAUAUGGU [#14]” was tested, and the “apparent KD of K4 kissing-loop reporter” value was 151 nM.
With “AAGUCAUAGGCAGGAUAUGCUUAGUAAUAAGGCCAUAUAUACGUAUAGAGUGAUGUUUUGUACCAGGCAGAAGGGCUACAUCAGU [FMN B Excl V8 (+2A)]” the “apparent KD of K4 kissing-loop reporter” value was 373 nM.
“CGUGAGUGCCGUCAGUCAUCGGUCCAUGCACGAGGACCGGUACGGCCGCCACUCGAGCGUGGCAGUGAUGUUGCCAGCGCACUAA [KL-XTryp-A12]” was tested, and the “apparent KD of K4 kissing-loop reporter” value was 103 nM.
